Test results: US20140363428A1 (Chugai, published 2014)

Target: T1, soluble human FcRn (human, UniProt P55899 24-297; P61769 21-119)
T1 construct: Heterodimer of FcRn alpha chain and beta2-microglobulin; also called hFcRn
Assay: SPR (Biacore T100), antibody captured by protein L, hFcRn as analyte, pH 7.0, 25 C;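 further: KD calculated from fitted association and dissociation rate constants of the sensorgrams, protein L amine-coupled to the sensor chip, sodium phosphate running buffer with NaCl and Tween20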
Experimental: An appropriate amount of protein L (ACTIGEN) was immobilized onto Sensor chip CM4 (GE Healthcare) by the amino coupling method, and the chip was allowed to capture an antibody of interest. Then, diluted FcRn solutions and running buffer (as a reference solution) were injected to allow human FcRn to interact with the antibody captured on the sensor chip. The running buffer used comprised 50 mmol/l sodium phosphate, 150 mmol/l NaCl, and 0.05% (w/v) Tween20 (pH 7.0). FcRn was diluted using each buffer. The chip was regenerated using 10 mmol/l glycine-HCl (pH 1.5). Assays were carried out exclusively at 25 degrees C. The association rate constant ka (1/Ms) and dissociation rate constant kd (1/s), both of which are kinetic parameters, were calculated based on the sensorgrams obtained in the assays, and KD (M) of each antibody for human FcRn was determined from these values. Each parameter was calculated using Biacore T100 Evaluation Software (GE Healthcare).

T1 sequence (P55899 24-297 limits assumed, chain 1 of 2): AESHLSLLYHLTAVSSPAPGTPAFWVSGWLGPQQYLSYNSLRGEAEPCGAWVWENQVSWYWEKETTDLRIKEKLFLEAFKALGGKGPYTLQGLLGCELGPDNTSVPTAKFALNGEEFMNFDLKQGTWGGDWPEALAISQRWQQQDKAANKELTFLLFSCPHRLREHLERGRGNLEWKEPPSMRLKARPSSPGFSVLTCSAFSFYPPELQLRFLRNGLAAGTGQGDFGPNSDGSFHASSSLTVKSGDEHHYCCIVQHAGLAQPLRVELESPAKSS
T1 sequence (P61769 21-119 limits assumed, chain 2 of 2): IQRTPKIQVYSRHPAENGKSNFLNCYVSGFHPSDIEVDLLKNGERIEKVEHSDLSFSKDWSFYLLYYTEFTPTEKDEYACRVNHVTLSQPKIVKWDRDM

Row | Binder | Kd
1 | IgG1-F1262 (antibody, EU numbering; copies: 2 + 2) heavy: QVQLQESGPGLVKPSETLSLTCAVSGHSISHDHAWSWVRQPPGEGLEWIGFISYSGITNYNPSLQGRVTISRDNSKNTLYLQMNSLRAEDTAVYYCARSLARTTAMDYWGEGTLVTVSSASTKGPSVFPLAPSSKSTSGGTAALGCLVKDYFPEPVTVSWNSGALTSGVHTFPAVLQSSGLYSLSSVVTVPSSSLGTQTYICNVNHKPSNTKVDKKVEPKSCDKTHTCPPCPAPELRGGPKVFLFPPKPKDTLYISRTPEVTCVVVDVSHEDPEVKFNWYVDGVEVHNAKTKPREEQYNSTYRVVSVLTVLHQDWLNGKEYKCKVSNKALPAPIEKTISKAKGQPREPQVYTLPPSRDELTKNQVSLTCLVKGFYPSDIAVEWESNGQPENNYKTTPPVLDSDGSFFLYSKLTVDKSRWQQGNVFSCSVMHEALHYHVTKKELSLSP light: not shown | 130 nM
2 | IgG1-F1160 (antibody, EU numbering; copies: 2 + 2) heavy: QVQLQESGPGLVKPSETLSLTCAVSGHSISHDHAWSWVRQPPGEGLEWIGFISYSGITNYNPSLQGRVTISRDNSKNTLYLQMNSLRAEDTAVYYCARSLARTTAMDYWGEGTLVTVSSASTKGPSVFPLAPSSKSTSGGTAALGCLVKDYFPEPVTVSWNSGALTSGVHTFPAVLQSSGLYSLSSVVTVPSSSLGTQTYICNVNHKPSNTKVDKKVEPKSCDKTHTCPPCPAPELLGGPSVFLFPPKPKDTLMISRTPEVTCVVVDVSHEDPEVKFNWYVDGVEVHNAKTKPREEQYNSTYRVVSVLTFLHQDWLNGKEYKCKVSNKALPAPIEKTISKAKGQPREPQVYTLPPSRDELTKNQVSLTCLVKGFYPSDIAVEWESNGQPENNYKTTPPVLDSDGSFFLYSKLTVDKSRWQQGNVFNCSVMHEALHYHYTQKSLSLSP light: not shown | 290 nM
3 | IgG1-F1161 (antibody, EU numbering; copies: 2 + 2) heavy: QVQLQESGPGLVKPSETLSLTCAVSGHSISHDHAWSWVRQPPGEGLEWIGFISYSGITNYNPSLQGRVTISRDNSKNTLYLQMNSLRAEDTAVYYCARSLARTTAMDYWGEGTLVTVSSASTKGPSVFPLAPSSKSTSGGTAALGCLVKDYFPEPVTVSWNSGALTSGVHTFPAVLQSSGLYSLSSVVTVPSSSLGTQTYICNVNHKPSNTKVDKKVEPKSCDKTHTCPPCPAPELLGGPSVFLFPPKPKDTLMISRTPEVTCVVVDVSHEDPEVKFNWYVDGVEVHNAKTKPREEQYNSTYRVVSVLTVLHQDWLNGKEYKCKVSNKALPAPVEKTISKAKGQPREPQVYTLPPSRDELTKNQVSLTCLVKGFYPSDIAVEWESNGQPENNYKTTPPVLDSDGSFFLYSKLTVDKSRWQQGNVFNCSVMHEALHYHYTQKSLSLSP light: not shown | 1100 nM
4 | IgG1-F1162 (antibody, EU numbering; copies: 2 + 2) heavy: QVQLQESGPGLVKPSETLSLTCAVSGHSISHDHAWSWVRQPPGEGLEWIGFISYSGITNYNPSLQGRVTISRDNSKNTLYLQMNSLRAEDTAVYYCARSLARTTAMDYWGEGTLVTVSSASTKGPSVFPLAPSSKSTSGGTAALGCLVKDYFPEPVTVSWNSGALTSGVHTFPAVLQSSGLYSLSSVVTVPSSSLGTQTYICNVNHKPSNTKVDKKVEPKSCDKTHTCPPCPAPELLGGDSVFLFPPKPKDYLYISRTPEVTCVVVDVSHEDPEVKFNWYVDGVEVHNAKTKPREEQYNSTYRVVSVLTVLHQDWLNGKEYKCKVSNKALPAPIEKTISKAKGQPREPQVYTLPPSRDELTKNQVSLTCLVKGFYPSDIAVEWESNGQPENNYKTTPPVLDSDGSFFLYSKLTVDKSRWQQGNVFSCSVMHEALHYHVTQKSLSLSP light: not shown | 340 nM
5 | IgG1-F1163 (antibody, EU numbering; copies: 2 + 2) heavy: QVQLQESGPGLVKPSETLSLTCAVSGHSISHDHAWSWVRQPPGEGLEWIGFISYSGITNYNPSLQGRVTISRDNSKNTLYLQMNSLRAEDTAVYYCARSLARTTAMDYWGEGTLVTVSSASTKGPSVFPLAPSSKSTSGGTAALGCLVKDYFPEPVTVSWNSGALTSGVHTFPAVLQSSGLYSLSSVVTVPSSSLGTQTYICNVNHKPSNTKVDKKVEPKSCDKTHTCPPCPAPELLGGDSVFLFPPKPKDYLYISRTPEVTCVVVDVSHEDPEVKFNWYVDGVEVHNAKTKPREEQYNSTYRVVSVLQVLHADWLNGKEYKCKVSNKALPAPIEKTISKAKGQPREPQVYTLPPSRDELTKNQVSLTCLVKGFYPSDIAVEWESNGQPENNYKTTPPVLDSDGSFFLYSKLTVDKSRWQQGNVFSCSVMHEALHYHYTQKSLSLSP light: not shown | 150 nM
6 | IgG1-F1164 (antibody, EU numbering; copies: 2 + 2) heavy: QVQLQESGPGLVKPSETLSLTCAVSGHSISHDHAWSWVRQPPGEGLEWIGFISYSGITNYNPSLQGRVTISRDNSKNTLYLQMNSLRAEDTAVYYCARSLARTTAMDYWGEGTLVTVSSASTKGPSVFPLAPSSKSTSGGTAALGCLVKDYFPEPVTVSWNSGALTSGVHTFPAVLQSSGLYSLSSVVTVPSSSLGTQTYICNVNHKPSNTKVDKKVEPKSCDKTHTCPPCPAPELLGGDSVFLFPPKPKDYLYISRTPEVTCVVVDVSHEDPEVKFNWYVDGVEVHNAKTKPREEQYNSTYRVVSVLQVLHADWLNGKEYKCKVSNKALPAPIEKTISKAKGQPREPQVYTLPPSRDELTKNQVSLTCLVKGFYPSDIAVEWESNGQPENNYKTTPPVLDSDGSFFLYSKLTVDKSRWQQGNVFSCSVMHEALHYHVTQKSLSLSP light: not shown | 70 nM
7 | IgG1-F1165 (antibody, EU numbering; copies: 2 + 2) heavy: QVQLQESGPGLVKPSETLSLTCAVSGHSISHDHAWSWVRQPPGEGLEWIGFISYSGITNYNPSLQGRVTISRDNSKNTLYLQMNSLRAEDTAVYYCARSLARTTAMDYWGEGTLVTVSSASTKGPSVFPLAPSSKSTSGGTAALGCLVKDYFPEPVTVSWNSGALTSGVHTFPAVLQSSGLYSLSSVVTVPSSSLGTQTYICNVNHKPSNTKVDKKVEPKSCDKTHTCPPCPAPELLGGDSVFLFPPKPKDYLYISRTPEVTCVVVDVSHEDPEVKFNWYVDGVEVHNAKTKPREEQYNSTYRVVSVLQPLHADWLNGKEYKCKVSNKALPAPIEKTISKAKGQPREPQVYTLPPSRDELTKNQVSLTCLVKGFYPSDIAVEWESNGQPENNYKTTPPVLDSDGSFFLYSKLTVDKSRWQQGNVFSCSVMHEALHYHVTQKSLSLSP light: not shown | 16 nM
8 | IgG1-F1178 (antibody, EU numbering; copies: 2 + 2) heavy: QVQLQESGPGLVKPSETLSLTCAVSGHSISHDHAWSWVRQPPGEGLEWIGFISYSGITNYNPSLQGRVTISRDNSKNTLYLQMNSLRAEDTAVYYCARSLARTTAMDYWGEGTLVTVSSASTKGPSVFPLAPSSKSTSGGTAALGCLVKDYFPEPVTVSWNSGALTSGVHTFPAVLQSSGLYSLSSVVTVPSSSLGTQTYICNVNHKPSNTKVDKKVEPKSCDKTHTCPPCPAPELLGGPSVFLFPPKPKDTLMISRTPEITCVVVDVSHEDPEVKFNWYVDGVEVHNAKTKPREEQYNSTYRVVSVLTFLHQDWLNGKEYKCKVSNKALPAPIEKTISKAKGQPREPQVYTLPPSRDELTKNQVSLTCLVKGFYPSDIAVEWESNGQPENNYKTTPPVLDSDGSFFLYSKLTVDKSRWQQGNVFSCSVLHEALHNHYTQKSLSLSP light: not shown | 870 nM
9 | IgG1-F1183 (antibody, EU numbering; copies: 2 + 2) heavy: QVQLQESGPGLVKPSETLSLTCAVSGHSISHDHAWSWVRQPPGEGLEWIGFISYSGITNYNPSLQGRVTISRDNSKNTLYLQMNSLRAEDTAVYYCARSLARTTAMDYWGEGTLVTVSSASTKGPSVFPLAPSSKSTSGGTAALGCLVKDYFPEPVTVSWNSGALTSGVHTFPAVLQSSGLYSLSSVVTVPSSSLGTQTYICNVNHKPSNTKVDKKVEPKSCDKTHTCPPCPAPELLGGPSVFLFPPKPKDTLMISRTPEVTCVVVDVSHEDPEVKFNWYVDGVEVHNAKTKPREEQYNSTYRVVSVLTVLHQDWLNGKEYKCKVSNKALPAPIEKTISKAKGQPREPQVYTLPPSRDELTKNQVSLTCLVKGFYPSDIAVAWESNGQPENNYKTTPPVLDSDGSFFLYSKLTVDKSRWQQGNVFSCSVLHEALHSHYTQKSLSLSP light: not shown | 1300 nM
10 | IgG1-F1185 (antibody, EU numbering; copies: 2 + 2) heavy: QVQLQESGPGLVKPSETLSLTCAVSGHSISHDHAWSWVRQPPGEGLEWIGFISYSGITNYNPSLQGRVTISRDNSKNTLYLQMNSLRAEDTAVYYCARSLARTTAMDYWGEGTLVTVSSASTKGPSVFPLAPSSKSTSGGTAALGCLVKDYFPEPVTVSWNSGALTSGVHTFPAVLQSSGLYSLSSVVTVPSSSLGTQTYICNVNHKPSNTKVDKKVEPKSCDKTHTCPPCPAPELLGGPSVFLFPPKPKDTLMISRTPEVTCVVVDVSHEDPEVKFNWYVDGVEVHNAKTKPREEQYNSTYRVVSVLAVLHQDWLNGKEYKCKVSNKALPAPIEKTISKAKGQPREPQVYTLPPSRDELTKNQVSLTCLVKGFYPSDIAVAWESNGQPENNYKTTPPVLDSDGSFFLYSKLTVDKSRWQQGNVFSCSVLHEALHSHYTQKSLSLSP light: not shown | 920 nM
11 | IgG1-F1188 (antibody, EU numbering; copies: 2 + 2) heavy: QVQLQESGPGLVKPSETLSLTCAVSGHSISHDHAWSWVRQPPGEGLEWIGFISYSGITNYNPSLQGRVTISRDNSKNTLYLQMNSLRAEDTAVYYCARSLARTTAMDYWGEGTLVTVSSASTKGPSVFPLAPSSKSTSGGTAALGCLVKDYFPEPVTVSWNSGALTSGVHTFPAVLQSSGLYSLSSVVTVPSSSLGTQTYICNVNHKPSNTKVDKKVEPKSCDKTHTCPPCPAPELLGGPSVFLFPPKPKDTLMISRTPEVTCVVVDVSHEDPEVKFNWYVDGVEVHNAKTKPREEQYNSTYRVVSVLAVLHQDWLNGKEYKCKVSNKALPAPIEKTISKAKGQPREPQVYTLPPSRDELTKNQVSLTCLVKGFYPSDIAVAWESNGQPENNYKTTPPVLDSDGSFFLYSKLTVDKSRWQQGNVFSCSVMHEALHHHYTQKSLSLSP light: not shown | 1700 nM
12 | IgG1-F1189 (antibody, EU numbering; copies: 2 + 2) heavy: QVQLQESGPGLVKPSETLSLTCAVSGHSISHDHAWSWVRQPPGEGLEWIGFISYSGITNYNPSLQGRVTISRDNSKNTLYLQMNSLRAEDTAVYYCARSLARTTAMDYWGEGTLVTVSSASTKGPSVFPLAPSSKSTSGGTAALGCLVKDYFPEPVTVSWNSGALTSGVHTFPAVLQSSGLYSLSSVVTVPSSSLGTQTYICNVNHKPSNTKVDKKVEPKSCDKTHTCPPCPAPELLGGPSVFLFPPKPKDTLYISRTPEVTCVVVDVSHEDPEVKFNWYVDGVEVHNAKTKPREEQYNSTYRVVSVLTVLHQDWLNGKEYKCKVSNKALPAPIEKTISKAKGQPREPQVYTLPPSRDELTKNQVSLTCLVKGFYPSDIAVEWESNGQPENNYKTTPPVLDSDGSFFLYSKLTVDKSRWQQGNVFSCSVMHEALDYHVTRKELSLSP light: not shown | 160 nM
